Experimental data as given in patent publication US20200339694A1 (CYTOMX THERAPEUTICS, published 2020).

B1: Peptide 1 (SEQ ID NO: 33) (peptide)
peptide: YRSCNWNYVSIFLDC
notes: also called 4278; parental peptide
B2: Peptide 2 (SEQ ID NO: 34) (peptide)
peptide: PGAFDIPFPAHWVPNT
notes: also called 4280; parental peptide

Target: T1, Av1 antibody
T1 construct: also called parental AV1 antibody; anti-IL6R antibody
Assay: FACS of the peptide displayed on cells

T1 sequence (heavy, as listed by the source, chain 1 of 2): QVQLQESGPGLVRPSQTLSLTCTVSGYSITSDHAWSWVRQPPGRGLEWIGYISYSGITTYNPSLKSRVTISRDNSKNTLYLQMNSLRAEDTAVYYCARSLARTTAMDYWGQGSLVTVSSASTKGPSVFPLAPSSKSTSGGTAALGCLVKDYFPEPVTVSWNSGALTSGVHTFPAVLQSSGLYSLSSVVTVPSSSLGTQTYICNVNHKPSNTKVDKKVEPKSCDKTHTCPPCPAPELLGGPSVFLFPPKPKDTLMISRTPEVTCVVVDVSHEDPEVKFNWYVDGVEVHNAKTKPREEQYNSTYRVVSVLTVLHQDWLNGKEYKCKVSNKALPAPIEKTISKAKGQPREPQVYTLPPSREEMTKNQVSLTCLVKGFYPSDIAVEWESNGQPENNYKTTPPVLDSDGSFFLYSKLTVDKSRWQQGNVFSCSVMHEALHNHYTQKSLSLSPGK
T1 sequence (light, as listed by the source, chain 2 of 2): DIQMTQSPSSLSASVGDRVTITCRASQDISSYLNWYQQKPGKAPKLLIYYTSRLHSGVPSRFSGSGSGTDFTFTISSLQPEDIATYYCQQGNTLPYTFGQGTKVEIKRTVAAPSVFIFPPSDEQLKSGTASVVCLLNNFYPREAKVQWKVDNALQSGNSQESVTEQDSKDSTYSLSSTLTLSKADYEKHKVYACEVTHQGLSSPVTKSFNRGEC

Row | Binder | binding result
1 | B1 | binds
2 | B2 | binds
